The values below come from article PMC11237401.

In one test the target is DivIC. Briefly: BACTH (bacterial adenylate cyclase-based two-hybrid). The note with it: T18 fusion: Gp11 or mutant; T25 fusion: DivIC; parent: est. 5500; read off a plot.
The target in another test is MurG (UniProt Q2FYL5). The test is described as above. The note with it: T18 fusion: Gp11 or mutant; T25 fusion: MurG; parent: est. 5300; read off a plot.
Chain of UniProt Q2FYL5 (Q2FYL5 whole entry, the tested form may be a part): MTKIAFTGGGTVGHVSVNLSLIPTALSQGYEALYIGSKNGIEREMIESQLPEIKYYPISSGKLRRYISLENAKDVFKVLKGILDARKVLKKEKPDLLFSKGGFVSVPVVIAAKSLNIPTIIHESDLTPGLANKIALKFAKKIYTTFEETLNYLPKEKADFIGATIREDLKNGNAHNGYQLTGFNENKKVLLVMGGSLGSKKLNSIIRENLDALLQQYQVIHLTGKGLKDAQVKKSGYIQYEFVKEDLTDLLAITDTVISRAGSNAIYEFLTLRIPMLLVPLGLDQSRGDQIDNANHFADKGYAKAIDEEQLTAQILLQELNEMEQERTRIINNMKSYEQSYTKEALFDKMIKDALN

Gp11 A38E: the response with DivIC stood at 1900 Miller Units; with MurG, 150 Miller Units.

Take Gp11 G36R: the response in the test with DivIC and with MurG was 100 Miller Units throughout.

Take Gp11 S33L: the response with DivIC was determined as 3200 Miller Units; with MurG it was 1600 Miller Units.
